According to patent US20250312468A1, “ANTI-PROTAC ANTIBODIES AND COMPLEXES” (Merck Patent GmbH, priority 2021, published 2025):

B1: MIC5: anti-PROTAC VHH clone, SEQ ID NO: 24 (protein)
VHH: AVQLVDSGGGLVQAGGSLRLSCAASGFTFDDYAIGWFRQAPGKEPEGILCISSSDGSAYVRDSVKGRFTMSSDNAKNTMYLQMNSLRTEDTAVYHCAVATGSCPADGGQKIFLEVWGQGTQVTVSS
modifications: new world camelid
B2: MIC7: anti-PROTAC VHH clone, SEQ ID NO: 20 (protein)
VHH: AVQLVESGGGLVQAGGSLRLSCAASGFSFDDYALGWFRQAPGKEPEGLSCISSSDGSTWYADSVKGRFTISSDNAKNTVYLQMNSLKPEDTAVYYCSAIYRLSCSVVRPTIRYALDYWGQGTQVTVSS
modifications: new world camelid

Legend:
MDAMB468 cells = experiment: CellTiter-Glo cell viability assay (VHH-based PAX); conditions: gemtuzumab-based vs cetuximab-based construct, GNE987 (1:1)
Description: (§1) Several cell viability experiments were performed following the procedure described below: Cells were seeded in different media into white cell culture-treated flat and clear bottom multiwell plates followed by overnight incubation in a humid chamber at 37° C. and 5% CO2. Complexation was performed as described in chapter 7.4.
(§2) The solutions were added to the cells based on the antibody concentration using nanodrop dispension using a Tecan D300e Digital Dispenser and all wells were normalized to the same volume using 0.3% TW20 in PBS pH 7.4 and DMSO to a final solvent concentration of 0.05% DMSO and 0.003% TW20. Incubation was performed at 37° C. at 5% or 10% CO2 dependent on the medium. The assay was developed after 3 days if not otherwise stated using CellTiter-Glo Luminescent Cell Viability Assay as described in the manufacturer's protocol. In brief, the plates were equilibrated to room temperature for 30 minutes. 100 mL CellTiter-Glo Buffer were added to the CellTiter-Glo Substrate Flask and mixed well. 30 μL of the reagent was transferred to each well. After incubation for 3 minutes at room temperature while shaking at 550 rpm, the plate was incubated for another 10 minutes at room temperature. The luminescence was read on an Envision reader from Perkin Elmer. Solvent alone and Bortezomib (1.0E-05 M) served as high control (100% viability) and low control (0% viability), respectively. Raw data were converted into percent cell viability relative to the high and low control, which were set to 100% and 0%, respectively. […] The concentration corresponds to the concentration of PROTACs in the PAX.

HEPG2 cells = experiment: CellTiter-Glo cell viability assay (VHH-based PAX); conditions: cetuximab-based construct, GNE987 (1:1)
Description: as §1, §2

| Molecule | Selectivity Index IC5O(G)/IC50(C) (MDAMB468 cells) | Selectivity Index IC50 of C on HEPG2/MDAMB468 (HEPG2 cells) |
| --- | --- | --- |
| B1 | 98.1 |  |
| B2 | 20.9 | 565.3 |
